Source: US20220194999A1

Molecular target: HLA-A*02:01 class I complex (conditional p*HLA*02:01, biotinylated heavy chain with beta2-microglobulin) (human)
Experiment: UV peptide exchange, HLA class I ELISA, % of Pos peptide
Details: remark: other sources report otherwise

| Binder | Average % | Exch I (%) | Exch II (%) | average relative binding (%) |
| --- | --- | --- | --- | --- |
| LVVVGACGV (here or on the partner: biotinylated heavy chain) [KRAS.G12C mutant peptide …] | 7% | 6.5% | 7.5% | < 15% |
| LVVVGAVGV (here or on the partner: biotinylated heavy chain) [KRAS.G12V mutant peptide …] | 4.5% | 4.3% | 4.6% | < 15% |
